Article PMC3588017, “Measurement of the Interaction Between Recombinant I-domain from Integrin alpha 2 beta 1 and a Triple Helical Collagen Peptide with the GFOGER Binding Motif Using Molecular Force Spectroscopy” (International Journal of Molecular Sciences, 2013)

Key:
[1] = biological target: GFOGER peptide, synthetic triple helical collagen related peptide GPC[GPP]5GFOGER[GPP]5GPCG; test: dynamic force spectroscopy (AFM); as a1, repeated over a range of loading rates; most dominant peak force against loading rate fitted with the Bell-Evans model; koff at zero applied force; conditions: both partners purified
[2] = biological target: GPP peptide, synthetic triple helical control peptide GPC[GPP]10GPCG; test: as above; conditions: both partners purified

koff [1]: 0.44 s⁻¹ | koff [2]: 11 s⁻¹
B1: I-domain from integrin alpha 2 beta 1, locked open I-domain cleaved of its GST tag (CLOI) (domain or fragment)
chain: CPSLIDVVVVCDESNSIYPWDAVKNFLEKFVQGLDIGPTKTQVGLIQYANNPRVVFNLNTYKTKEEMIVATSQTSQYGGDLTNTFGAIQYARKYAYSAASGGRRSATKVMVVVTDGESHDGSMLKAVIDQCNHDNILRFGIAVLGYLNRNALDTKNLIKEIKAIASIPTERYFFNVSDEAALLEKAGTLGEQIFSIEG
